The experiment deals with T1, carcinoembryonic antigen (CEA) (UniProt P06731 35-685).
T1 sequence (looked up): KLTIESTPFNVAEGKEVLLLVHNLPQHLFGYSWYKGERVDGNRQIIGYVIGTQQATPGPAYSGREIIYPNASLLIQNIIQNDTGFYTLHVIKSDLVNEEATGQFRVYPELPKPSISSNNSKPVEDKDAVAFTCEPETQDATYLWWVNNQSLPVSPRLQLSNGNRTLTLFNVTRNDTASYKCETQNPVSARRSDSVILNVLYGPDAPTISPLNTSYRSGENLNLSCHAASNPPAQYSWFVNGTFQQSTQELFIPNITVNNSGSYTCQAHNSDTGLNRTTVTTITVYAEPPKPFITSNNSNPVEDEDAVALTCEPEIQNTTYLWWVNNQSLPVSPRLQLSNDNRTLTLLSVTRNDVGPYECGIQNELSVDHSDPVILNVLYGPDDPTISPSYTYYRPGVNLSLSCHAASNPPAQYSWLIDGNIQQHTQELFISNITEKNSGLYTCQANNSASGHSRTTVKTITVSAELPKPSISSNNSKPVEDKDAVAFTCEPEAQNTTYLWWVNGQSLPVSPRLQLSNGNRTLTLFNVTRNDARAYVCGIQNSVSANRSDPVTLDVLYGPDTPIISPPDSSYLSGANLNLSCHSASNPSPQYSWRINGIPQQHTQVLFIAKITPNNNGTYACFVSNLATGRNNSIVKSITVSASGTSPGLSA
Briefly: bispecific ELISA, plates coated with CEA, detection with soluble FcγRI/IgM-µ. For orientation: ELISA stands for enzyme-linked immunosorbent assay.

From the text: ELISA plates are coated with CEA and the blocked with 5% PBA.

B1: single chain antibody H22 encoded by construct 225 (scFv)
scFv: DIQLVESGGGVVQPGRSLRLSCSSSGFIFSDNYMYWVRQAPGKGLEWVATISDGGSYTYYPDSVKGRFTISRDNSKNTLFLQMDSLRPEDTGVYFCARGYYRYEGAMDYWGQGTPVTVSSGGGGSGGGGSGGGGSDIQLTQSPSSLSASVGDRVTITCKSSQSVLYSSNQKNYLAWYQQKPGKAPKLLIYWASTRESGVPSRFSGSGSGTDFTFTISSLQPEDIATYYCHQYLSSWTFGQGTKVEIKSSCSSGGGGSDIAAAEQKLISEEDLNGAAHHHHHH
notes: also called single chain H22 antibody
B1: the binding result was “no binding”.

Source of the values: patent US6365161 (Bristol-Myers Squibb, dated 2002).
